We go through three substances from paper doi:10.1101/2021.04.08.436756.

Assay [1] addresses T1, myc-GIPR-Rluc (UniProt P48546).
T1 sequence: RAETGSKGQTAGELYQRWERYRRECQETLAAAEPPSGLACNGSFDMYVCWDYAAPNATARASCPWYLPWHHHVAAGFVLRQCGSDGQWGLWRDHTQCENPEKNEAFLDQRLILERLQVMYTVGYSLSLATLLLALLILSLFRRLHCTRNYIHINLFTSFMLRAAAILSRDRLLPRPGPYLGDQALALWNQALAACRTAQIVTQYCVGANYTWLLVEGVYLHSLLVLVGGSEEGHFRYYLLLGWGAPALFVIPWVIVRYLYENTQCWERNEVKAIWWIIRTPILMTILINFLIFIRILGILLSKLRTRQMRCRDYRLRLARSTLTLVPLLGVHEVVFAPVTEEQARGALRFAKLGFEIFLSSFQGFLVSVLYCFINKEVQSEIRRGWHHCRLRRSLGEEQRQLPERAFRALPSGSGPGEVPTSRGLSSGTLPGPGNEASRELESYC

For assay [2], the target named is T1, myc-GIPR-Rluc. The source holds these as a separate data set.

Like-named read-outs stand apart in the source and are kept apart here.

“GIP (1-42) (from UniProt P09681 52-93) (peptide)”: in the assay with myc-GIPR-Rluc [1], the ERK1/2 phosphorylation, biphasic model, high potency component; pEC50 1 was 9.13 -logEC50; the ERK1/2 phosphorylation, biphasic model, low potency component; pEC50 2 is 6.22 -logEC50; the [Ca^2+]i mobilisation, HEK-293S cells with untagged GIPR; pEC50 is 8.7 -logEC50; the cAMP accumulation, 8 min stimulation, HEK-293S cells with untagged GIPR; pEC50 is 9.83 -logEC50.

As to “GIP (D-Ala2) (from UniProt P09681 52-93) (peptide)”, in the assay with myc-GIPR-Rluc [2], the ERK1/2 phosphorylation, biphasic model, high potency component; pEC50 1 is 8.72 -logEC50 and the ERK1/2 phosphorylation, biphasic model, low potency component; pEC50 2 was 6.88 -logEC50.

As to GIP (Pro3) (peptide), in the assay with myc-GIPR-Rluc [2], the ERK1/2 phosphorylation, biphasic model, high potency component; pEC50 1 was 7.49 -logEC50 and the ERK1/2 phosphorylation, biphasic model, low potency component; pEC50 2 was 4.5 -logEC50.
